Laboratory results reported in US20260193342A1 (ZOETIS SERVICES, published 2026).
Where a chain is given by its changes, count along the chain named.

B1: mAb1, caninized anti-IL31 antibody 34D03, canine IgGA, N434Y (antibody)
heavy: EVQLVESGGDLVKPGGSLRLSCVASGFTFSNYGMSWVRQAPGKGLQWVATISYGGSYTYYPDNIKGRFTISRDNAKNTLYLQMNSLRAEDTAMYYCVRGYGYDTMDYWGQGTLVTVSSASTTAPSVFPLAPSCGSTSGSTVALACLVSGYFPEPVTVSWNSGSLTSGVHTFPSVLQSSGLHSLSSMVTVPSSRWPSETFTCNVVHPASNTKVDKPVFNECRCTDTPPCPVPEPLGGPSVLIFPPKPKDILRITRTPEVTCVVLDLGREDPEVQISWFVDGKEVHTAKTQSREQQFNGTYRVVSVLPIEHQDWLTGKEFKCRVNHIDLPSPIERTISKARGRAHKPSVYVLPPSPKELSSSDTVSITCLIKDFYPPDIDVEWQSNGQQEPERKHRMTPPQLDEDGSYFLYSKLSVDKSRWQQGDPFTCAVMHETLQYHYTDLSLSHSPGK
light: EIVMTQSPASLSLSQEEKVTITCKASQSVSFAGTGLMHWYQQKPGQAPKLLIYRASNLEAGVPSRFSGSGSGTDFSFTISSLEPEDVAVYYCQQSREYPWTFGQGTKLEIKRNDAQPAVYLFQPSPDQLHTGSASVVCLLNSFYPKDINVKWKVDGVIQDTGIQESVTEQDKDSTYSLSSTLTMSSTEYLSHELYSCEITHKSLPSTLIKSFQRSEC
notes: VH/VL: the caninized 34D03 entries of the listing; also called ID No. 7; copies: 2 + 2
B2: mAb1, caninized anti-IL31 antibody 34D03, canine IgGB, N434I (antibody)
heavy: EVQLVESGGDLVKPGGSLRLSCVASGFTFSNYGMSWVRQAPGKGLQWVATISYGGSYTYYPDNIKGRFTISRDNAKNTLYLQMNSLRAEDTAMYYCVRGYGYDTMDYWGQGTLVTVSSASTTAPSVFPLAPSCGSTSGSTVALACLVSGYFPEPVTVSWNSGSLTSGVHTFPSVLQSSGLYSLSSMVTVPSSRWPSETFTCNVAHPASKTKVDKPVPKRENGRVPRPPDCPKCPAPEMLGGPSVFIFPPKPKDTLLIARTPEVTCVVVDLDPEDPEVQISWFVDGKQMQTAKTQPREEQFNGTYRVVSVLPIGHQDWLKGKQFTCKVNNKALPSPIERTISKARGQAHQPSVYVLPPSREELSKNTVSLTCLIKDFFPPDIDVEWQSNGQQEPESKYRTTPPQLDEDGSYFLYSKLSVDKSRWQRGDTFICAVMHEALHIHYTQESLSHSPGK
light: B1 light
notes: VH/VL: the caninized 34D03 entries of the listing; also called ID No. 12; copies: 2 + 2
B3: mAb1, caninized anti-IL31 antibody 34D03, canine IgGB, N434F (antibody)
heavy: B2 heavy with I440F
light: B1 light
notes: VH/VL: the caninized 34D03 entries of the listing; also called ID No. 10; copies: 2 + 2
B4: mAb1, caninized anti-IL31 antibody 34D03, canine IgGB, N434G (antibody)
heavy: B2 heavy with I440G
light: B1 light
notes: VH/VL: the caninized 34D03 entries of the listing; also called ID No. 11; copies: 2 + 2
B5: mAb1, caninized anti-IL31 antibody 34D03, canine IgGB, N434A (antibody)
heavy: B2 heavy with I440A
light: B1 light
notes: VH/VL: the caninized 34D03 entries of the listing; also called ID No. 9; copies: 2 + 2
B6: mAb2 of Table 4A, caninized anti-NGF antibody ZTS-841, canine IgGA, N434Y (antibody)
heavy: EVQLVESGGDLVKPGGSLRLSCVASGFTFSSHGMHWVRQSPGKGLQWVAVINSGGSSTYYTDAVKGRFTISRDNAKNTVYLQMNSLRAEDTAMYYCAKESVGGWEQLVGPHFDYWGQGTLVIVSSASTTAPSVFPLAPSCGSTSGSTVALACLVSGYFPEPVTVSWNSGSLTSGVHTFPSVLQSSGLHSLSSMVTVPSSRWPSETFTCNVVHPASNTKVDKPVFNECRCTDTPPCPVPEPLGGPSVLIFPPKPKDILRITRTPEVTCVVLDLGREDPEVQISWFVDGKEVHTAKTQSREQQFNGTYRVVSVLPIEHQDWLTGKEFKCRVNHIDLPSPIERTISKARGRAHKPSVYVLPPSPKELSSSDTVSITCLIKDFYPPDIDVEWQSNGQQEPERKHRMTPPQLDEDGSYFLYSKLSVDKSRWQQGDPFTCAVMHETLQYHYTDLSLSHSPGK
VL: QSVLTQPTSVSGSLGQRVTISCSGSTNNIGILGASWYQLFPGKAPKLLVYGNGNRPSGVPDRFSGADSGDSVTLTITGLQAEDEADYYCQSFDTTLGAHVFGGGTHLTVL
notes: also called ID No. 45

How the values were obtained:
[1] = target: T1, canine FcRn complex (FcRn-α subunit and β-microglobulin) (canine, UniProt A0A8I3PFR8 25-347, biotin on the BAP tag by BirA (Example 5 only)); assay: SPR (Biacore), biotinylated FcRn on SA chip, IgG flowed, pH 7.4, 15 C
[2] = target: T1, canine FcRn complex (FcRn-α subunit and …); assay: SPR (Biacore), biotinylated FcRn on SA chip, IgG flowed, pH 6, 15 C

T1 sequence (A0A8I3PFR8 entry or part of it, one chain of several): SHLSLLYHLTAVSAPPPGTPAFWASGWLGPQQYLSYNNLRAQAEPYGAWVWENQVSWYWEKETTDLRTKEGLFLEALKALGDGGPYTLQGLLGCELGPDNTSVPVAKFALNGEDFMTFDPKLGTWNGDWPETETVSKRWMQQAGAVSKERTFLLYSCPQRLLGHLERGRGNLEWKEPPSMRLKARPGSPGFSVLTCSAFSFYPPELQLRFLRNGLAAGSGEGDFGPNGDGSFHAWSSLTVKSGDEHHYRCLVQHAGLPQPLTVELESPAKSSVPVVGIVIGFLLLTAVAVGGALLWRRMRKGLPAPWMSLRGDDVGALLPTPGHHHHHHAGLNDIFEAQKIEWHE

Binder	Kd [1]	Kd [2]
B1	0.573 µM	25.2 nM
B2	19.6 µM	77.1 nM
B3	33.7 µM	30.7 nM
B4	26 µM	118 nM
B5	0.175 µM	139 nM
B6	9.53 µM	14.3 nM
